Reference: US20200207837A1 (published 2020)
Positions count from the first letter of the chain named.

T1: activated KLK4 (human KLK4, C-terminal His tag, pro-KLK4 activated with thermolysin) (UniProt Q9Y5K2 31-254)
T1 chain: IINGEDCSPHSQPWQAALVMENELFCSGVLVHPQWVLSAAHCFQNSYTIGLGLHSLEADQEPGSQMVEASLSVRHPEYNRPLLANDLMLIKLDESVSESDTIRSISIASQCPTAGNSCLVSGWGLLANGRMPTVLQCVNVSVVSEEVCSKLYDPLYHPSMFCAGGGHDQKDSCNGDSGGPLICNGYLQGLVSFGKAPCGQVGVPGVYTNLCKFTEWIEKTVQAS

T2: activated KLK8 (human KLK8, C-terminal His tag, pro-KLK8 activated with thermolysin) (UniProt O60259 33-260)
T2 chain: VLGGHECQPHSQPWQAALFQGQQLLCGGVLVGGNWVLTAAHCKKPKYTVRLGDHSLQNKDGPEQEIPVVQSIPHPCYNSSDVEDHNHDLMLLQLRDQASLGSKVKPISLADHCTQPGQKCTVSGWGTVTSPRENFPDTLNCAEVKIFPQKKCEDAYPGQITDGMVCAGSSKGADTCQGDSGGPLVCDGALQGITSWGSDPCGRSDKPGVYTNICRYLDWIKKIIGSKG

T3: KLK4 biotinylated with EZ-Link NHS-PEG4-Biotin (UniProt Q9Y5K2 31-254, biotinylated with EZ-Link NHS-PEG4-Biotin (sites not given))
T3 chain: T1 chain

B1: KLK4/KLK8 inhibitory peptide K41026 (designed binder)
chain: GSGMKETAAAKFERQHMDSPDLGTDDDDKAMADIGSANSDPQFGLFSKYRTPNCQRYKMRGCNRMYDPVCGSDMSTYANECTLCMKIREGGHNIKIIRNGPCGASAAA
B2: KLK4 inhibitory peptide K40005 (designed binder)
chain: B1 chain with Q55S, R56Q, Y57Q, K58A, R60G, G61A, N63Q, M65I, D67K
B3: KLK4 inhibitory peptide K40001 (designed binder)
chain: B1 chain with Q55R, R56K, K58E, M59Y, R60G, G61V, N63Q, M65T, D67L
B4: KLK4/KLK8 inhibitory peptide K41047 (designed binder)
chain: B1 chain with Q55M, Y57F, K58H, M59K, R60D, N63A, M65I
B5: KLK4/KLK8 inhibitory peptide K41021 (designed binder)
chain: B1 chain with Q55R, R56K, Y57H, K58T, M59L, R60D, N63A, M65I
B6: KLK4/KLK8 inhibitory peptide K41041 (designed binder)
chain: B1 chain with K58S, M59Q, R60W, N63T, M65Q, Y66L
B7: KLK4/KLK8 inhibitory peptide K41024 (designed binder)
chain: B1 chain with Q55T, K58V, M59V, R60N, N63S, M65V
B8: KLK4/KLK8 inhibitory peptide K41042 (designed binder)
chain: B1 chain with Q55S, K58R, M59R, R60E, D67N
B9: KLK4/KLK8 inhibitory peptide K41045 (designed binder)
chain: B1 chain with Q55R, R56K, Y57Q, K58Y, M59W, R60V, D67A
B10: KLK4 inhibitory peptide K40003 (designed binder)
chain: B1 chain with Q55E, R56L, K58V, M59E, R60D, G61V, N63Q, M65I, Y66F, D67K
B11: KLK4/KLK8 inhibitory peptide K41043 (designed binder)
chain: B1 chain with Q55R, K58S, M59I, R60H, D67A
B12: KLK4/KLK8 inhibitory peptide K41025 (designed binder)
chain: B1 chain with Q55S, M59S, R60G, N63T, M65I, Y66F
B13: KLK4 inhibitory peptide K40004 (designed binder)
chain: GSGMKETAAAKFERQHMDSPDLGTDDDDKAMADIGSANSDPQFGLFSKYRTPNCEHAQLGVCQKLYQPVCGSDMSTYANECTLCMKIREGGHNIKIIRNGPCGASAAA
B14: KLK4/KLK8 inhibitory peptide K41046 (designed binder)
chain: B13 chain with E55G, H56R, A57Y, Q58Y, L59R, V61W, Q63F, L65S, Y66L, Q67E
B15: KLK1 inhibitory peptide K10066 (designed binder)
chain: GSGMKETAAAKFERQHMDSPDLGTDDDDKAMADIGSANSDPQFGLFSKYRTPNCSVALRDICWWTSEPVCGSDMSTYANECTLCMKIREGGHNIKIIRNGPCGASAAA
B16: KLK1 inhibitory peptide K10071 (designed binder)
chain: B1 chain with Q55D, R56Q, Y57N, M59Y, G61D, N63H, R64Y, M65Y, D67K
B17: KLK1 inhibitory peptide K10061 (designed binder)
chain: B1 chain with Q55A, Y57N, K58N, M59I, R60V, G61D, N63F, R64Y, M65Y, D67K
B18: KLK1 inhibitory peptide K10062 (designed binder)
chain: B15 chain with S55D, V56I, A57Y, L58Q, R59V, I61R, T65A, E67Q

Biological target: T1, activated KLK4 (human KLK4, C-terminal …)
Assay: peptide substrate degradation inhibition

| Binder | Ki [nM] |
| --- | --- |
| B1 | 69.3 |
| B2 | 0.21 |
| B3 | 0.16 |
| B4 | 1.38 |
| B5 | 10.7 |
| B6 | 0.4 |
| B7 | 74.6 |
| B8 | 2.8 |
| B9 | 0.32 |
| B10 | 0.2 |
| B11 | 0.21 |
| B12 | 16.3 |
| B13 | 0.38 |
| B14 | 0.31 |

Each binder was assayed against activated KLK1 (human KLK1, C-terminal His tag, pro-KLK1 activated with thermolysin) (UniProt P06870 25-262) (assay: peptide substrate degradation inhibition).
Sequence of activated KLK1 (human KLK1, C-terminal His tag, pro-KLK1 activated with thermolysin) (P06870 25-262): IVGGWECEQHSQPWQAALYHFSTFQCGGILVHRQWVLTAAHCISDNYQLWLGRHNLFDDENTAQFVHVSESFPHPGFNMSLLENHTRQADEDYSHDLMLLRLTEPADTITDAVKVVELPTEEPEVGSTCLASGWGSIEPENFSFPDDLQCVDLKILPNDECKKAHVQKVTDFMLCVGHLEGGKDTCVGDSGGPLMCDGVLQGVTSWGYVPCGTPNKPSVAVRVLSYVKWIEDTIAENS

| Binder | IC50 [nM] |
| --- | --- |
| B15 | 12 |
| B16 | 20 |
| B17 | 13 |
| B1 | > 1000 |
| B2 | > 1000 |
| B3 | > 1000 |
| B4 | > 1000 |
| B5 | > 1000 |
| B6 | > 1000 |
| B7 | > 1000 |
| B8 | > 1000 |
| B9 | > 1000 |
| B10 | > 1000 |
| B11 | > 1000 |
| B12 | > 1000 |
| B13 | > 1000 |
| B14 | > 1000 |
| B18 | 12 |

Biological target: T2, activated KLK8 (human KLK8, C-terminal …)
Assay: peptide substrate degradation inhibition

| Binder | IC50 [nM] |
| --- | --- |
| B15 | > 1000 |
| B16 | > 1000 |
| B17 | > 1000 |
| B1 | 9.1 |
| B2 | > 1000 |
| B3 | > 1000 |
| B4 | 31.5 |
| B5 | 7.5 |
| B6 | 11.4 |
| B7 | 8 |
| B8 | 17.5 |
| B9 | 114 |
| B10 | > 1000 |
| B11 | 5.3 |
| B12 | 17 |
| B13 | > 1000 |
| B14 | 283 |
| B18 | > 1000 |

Biological target: T1, activated KLK4 (human KLK4, C-terminal …)
Assay: peptide substrate degradation inhibition
Remark: another data set of the same source

| Binder | IC50 [nM] |
| --- | --- |
| B15 | > 1000 |
| B16 | > 1000 |
| B17 | > 1000 |
| B1 | 293 |
| B2 | 2.2 |
| B3 | 1.8 |
| B4 | 7.4 |
| B5 | 53 |
| B6 | 2.7 |
| B7 | 293 |
| B8 | 15.7 |
| B9 | 2.3 |
| B10 | 1.8 |
| B11 | 1.9 |
| B12 | 86 |
| B13 | 2.1 |
| B14 | 2 |
| B18 | > 1000 |

Biological target: T3, KLK4 biotinylated with EZ-Link …
Assay: SPR (Biacore T200)

| Binder | Kd [nM] |
| --- | --- |
| B3 | 0.00208 |
| B10 | 0.0232 |
| B11 | 0.00891 |
